Results as given in the RNAGym collection of RNA variant scans (doi:10.7554/elife.80360).

B1: Twister Ribozyme (parent)
chain: AACACUGCCAAUGCCGGUCCCAAGCCCGGAUAAAAGUGGAGGGGGCGG

Variants of: B1
Assay: self-cleavage, relative activity (ratio to wild type); higher = more cleavage; co-transcriptional

In order of falling self-cleavage:
1. C15U G28A  1.14
2. G16A G48C  1.08
3. G16A A30U  1.04
4. G16A  1.03
5. C15U A33U  1.01
6. G16A G44U  1
7. G16A C46A  0.994
8. C15U G44U  0.988
9. C15U G48U  0.987
10. G16A G48A  0.979
11. C15U G28U  0.973
12. G16A A32C  0.97
13. G16A U31A  0.958
14. C15U C46A  0.944
15. G16A G44A  0.928
16. C15U G29A  0.927
17. C15U A30U  0.925
18. C15U G45A  0.924
19. C15U U31C  0.923
20. G16A G48U  0.917
21. C15U A35U  0.915
22. C15U C19U  0.902
23. G16A C46U  0.895
24. C15U A32G  0.891
25. G16A G45A  0.891
26. C15U C46G  0.887
27. G16A A33U  0.858
28. G16A C25U  0.852
29. C15U C20U  0.845
30. C15U A33C  0.839
31. C15U G45U  0.817
32. G16A U31C  0.816
33. C15U G44C  0.812
34. C15U A30C  0.802
35. C15U A33G  0.802
36. C15U G38C  0.801
37. G16A A33C  0.799
38. C15U U31G  0.782
39. C15U G48A  0.765
40. C15G G28U  0.761
41. C15A U31G  0.76
42. C15U A30G  0.759
43. G16A C27G  0.745
44. C15A G48C  0.715
45. C15A U31A  0.706
46. C15U A34U  0.68
47. C15U A32C  0.678
48. G16C  0.663
49. C15U A35G  0.659
50. G16A G38U  0.656
51. C15U G29U  0.652
52. C15U G45C  0.64
53. G16A G29A  0.639
54. C15A G48U  0.573
55. C15U C27U  0.542
56. C15A G48A  0.528
57. G16A G28C  0.489
58. G16A G47U  0.487
59. G16A G28A  0.48
60. C15A G45A  0.478
61. C15U G16C  0.464
62. C15U G16A  0.457
63. C15U G36A  0.454
64. G16A A34U  0.417
65. C15U G47C  0.415
66. C15U C25G  0.414
67. G16A G36A  0.409
68. G16A G41U  0.396
69. C15U U18A  0.379
70. C15A G45C  0.352
71. C15A G47U  0.332
72. G16A G43U  0.321
73. C15U G39A  0.314
74. C15U G16U  0.31
75. C15A G43A  0.299
76. C15U G42C  0.296
77. C15U A23U  0.291
78. C15U G43U  0.277
79. C15A G47C  0.253
80. C15U C19G  0.251
81. G16A G42C  0.241
82. C15U G42U  0.235
83. G16A G17U  0.232
84. C15U G41C  0.209
85. C15U A34C  0.205
86. C15U G17A  0.204
87. C15U G17U  0.204
88. C15U G42A  0.204
89. C15U G36U  0.203
90. C15G C27A  0.198
91. G16C A22C  0.198
92. G16A U37G  0.195
93. C15U G29C  0.194
94. G16A G39A  0.185
95. G16A G43C  0.181
96. G16A C19G  0.172
97. G16A A40G  0.17
98. C15A U37C  0.168
99. G16A G41C  0.167
100. C15G C25U  0.165
101. G16A A23G  0.161
102. G16A C20G  0.158
103. C15G U31G  0.153
104. C15U A22G  0.147
105. C15U G39C  0.146
106. C15G U37G  0.143
107. G16A G39C  0.141
108. G16A A23C  0.137
109. C15A U37A  0.129
110. C15U C26A  0.126
111. G16A A40U  0.125
112. C15G A30G  0.123
113. C15U G24C  0.115
114. C15G A40G  0.114
115. C15G U37C  0.114
116. G16A G24U  0.113
117. C15G G41A  0.112
118. G16A C26G  0.112
119. C15G C46G  0.111
120. C15G G29U  0.11
121. C15G U31C  0.108
122. C15G G39C  0.104
123. C15U G24A  0.1
124. C15G A32G  0.0996
125. G16A G24C  0.0993
126. C15G A35U  0.0985
127. C15G C21G  0.0959
128. C15G C26A  0.0956
129. C15G U18G  0.0953
130. C15G C27U  0.094
131. C15G A33G  0.0911
132. C15A U18G  0.089
133. C15G G48A  0.0877
134. C15G G48U  0.0875
135. G16A U18G  0.0863
136. C15G A33C  0.0859
137. C15G A22C  0.0849
138. C15G G42U  0.084
139. C15G G36A  0.0815
140. C15G C19A  0.0812
141. G16A C21G  0.0789
142. C15G C25G  0.0786
143. C15G C21A  0.077
144. C15G G44C  0.0763
145. C15G C46U  0.075
146. C15G G44U  0.075
147. C15G C46A  0.0745
148. C15G C27G  0.0738
149. C15G C21U  0.0717
150. C15G C20A  0.0716
151. G16C A22G  0.0711
152. C15G A30C  0.0706
153. G16A C21U  0.0697
154. C15G A23G  0.0653
155. C15G C19G  0.0636
156. C15G U37A  0.0636
157. C15G G38A  0.0635
158. C15G A32U  0.0633
159. C15G G42A  0.0628
160. C15G A40C  0.0616
161. C15G C25A  0.0585
162. C15G A34C  0.0577
163. C15G G43A  0.0569
164. C15G G41U  0.0559
165. C15G G39U  0.0441
166. C15G C26U  0.0429
167. C15U C21G  0.0408
